{"source": "paper PMC6331727", "target": "ADP-ribosylation factor-like protein 13B (Arl13b)", "assay": "co-immunoisolation with paramagnetic beads, immunoblot quantification", "conditions": "MDCK cells expressing Prom1 or K138Q; n = 3; parent: est. 0.53; read off a plot", "data": [{"substance": "Human Prominin-1 (Prom1/CD133), splice variant s2 (from UniProt O43490) K138Q", "values": [{"measurement": "other: Arl13b / Prom1 ratio", "value": 0.05}]}]}
